Data reported in publication doi:10.1101/2021.09.29.461692 (bioRxiv, 2021).
Changes are numbered by the printed parent chain. In names and notes the source's numbering stands.

B1: ketosteroid isomerase (KSI) Y57F/D40N (enzyme, Pseudomonas putida)
chain: LPTAQEVQGLMARYIELVDVGDIEAIVQMYADDATVENPFGQPPIHGREQIAAFFRQGLGGGKVRACLTGPVRASHNGCGAMPFRVEMVWNGQPCALDVIDVMRFDEHGRIQTMQAYWSEVNLSVREPQ
B2: ketosteroid isomerase (KSI) Y32F/Y57F (enzyme, Pseudomonas putida)
chain: MNLPTAQEVQGLMARYIELVDVGDIEAIVQMFADDATVEDPFGQPPIHGREQIAAFFRQGLGGGKVRACLTGPVRASHNGCGAMPFRVEMVWNGQPCALDVIDVMRFDEHGRIQTMQAYWSEVNLSVREPQ
B3: ketosteroid isomerase (KSI) Y57F (enzyme, Pseudomonas putida)
chain: B2 chain with F32Y

Molecular target: the molecule itself
Assay: crystal structure

| Protein | stoichiometry N |
| --- | --- |
| B1 | 2 |
| B2 | 2 |
| B3 | 2 |
